From patent US20250313626A1 (HARBOUR BIOMED SHANGHAI, published 2025)

Columns and labels:
[1] = biological target: T1, Cynomolgus macaques CD200R1 isoform a on CHOK1 cells (CHOK1/cynoCD200R1a) (Cynomolgus macaques); assay: flow cytometry, CHOK1/cynoCD200R1a cells; table beside the curves, head without unit, x axis Log [Ab] (nM)
T1 chain: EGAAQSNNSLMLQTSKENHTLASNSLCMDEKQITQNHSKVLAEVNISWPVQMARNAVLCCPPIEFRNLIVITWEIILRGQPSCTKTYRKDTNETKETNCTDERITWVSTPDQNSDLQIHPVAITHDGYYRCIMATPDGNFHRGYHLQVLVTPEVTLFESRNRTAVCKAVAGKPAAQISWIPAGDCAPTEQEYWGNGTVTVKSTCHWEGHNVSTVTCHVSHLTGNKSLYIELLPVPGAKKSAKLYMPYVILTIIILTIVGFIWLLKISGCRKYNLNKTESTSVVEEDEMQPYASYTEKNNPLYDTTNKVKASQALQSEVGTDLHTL
Description: (§1) This example is intended to investigate the in vitro binding activity of human anti-CD200R1 monoclonal antibodies to human/Cynomolgus macaques CD200R1a expressed on the surface of cells. The anti-CD200R1 antibodies were produced as described in Example 3.4 and the binding experiments at the cell level were performed using CHOK1/hCD200R1a and CHOK1-cynoCD200R1a.
(§2) Briefly, CHOK1/hCD200R1a cells and CHOK1-cynoCD200R1a cells were digested, and collected, and then were resuspended in PBS containing 2% BSA, respectively. The cell density was adjusted to 1×10⁶ cells/mL. The cells were seeded in a 96-well V-bottom plate (Corning, #3894) at 100 μL/well, followed by the addition of test antibodies and reference antibodies in a series diluted concentration, each at 100 μL/well. The cells were incubated away from light at 4° C. for 1 h. Thereafter, the cells in each well were rinsed twice with 100 μL of pre-cooled PBS containing 2% BSA, and centrifuged at 500 g at 4° C. for 5 min, and then the supernatant was discarded. 100 μL of fluorescent secondary antibody (Alexa Fluor 488-conjugated AffiniPure Goat Anti-Human IgG, Fcγ Fragment Specific, Jackson, #109-545-098, diluted in a 1:1000 ratio) was added in each well, and the plate was incubated away from light at 4° C. for 1 h. The cells in each well were rinsed twice with 100 μL of pre-cooled PBS containing 2% BSA, and centrifuged at 500 g at 4° C. for 5 min, and then the supernatant was discarded. Finally, the cells in each well were resuspended in 200 μL of pre-cooled PBS containing 2% BSA, and the fluorescence signal values were read using a BD CantoII flow cytometer.

[2] = biological target: T1, Cynomolgus macaques CD200R1 isoform a …; assay: flow cytometry, CHOK1/cynoCD200R1a cells (APC-A Mean); table beside the curves
[3] = biological target: T2, human CD200R1 isoform a on CHOK1 cells (CHOK1/hCD200R1a) (human, UniProt Q8TD46 25-348); assay: flow cytometry, CHOK1/hCD200R1a cells; table beside the curves, head without unit, x axis Log [Ab] (nM)
T2 construct: also called CHOK1/CD200R1a
T2 sequence: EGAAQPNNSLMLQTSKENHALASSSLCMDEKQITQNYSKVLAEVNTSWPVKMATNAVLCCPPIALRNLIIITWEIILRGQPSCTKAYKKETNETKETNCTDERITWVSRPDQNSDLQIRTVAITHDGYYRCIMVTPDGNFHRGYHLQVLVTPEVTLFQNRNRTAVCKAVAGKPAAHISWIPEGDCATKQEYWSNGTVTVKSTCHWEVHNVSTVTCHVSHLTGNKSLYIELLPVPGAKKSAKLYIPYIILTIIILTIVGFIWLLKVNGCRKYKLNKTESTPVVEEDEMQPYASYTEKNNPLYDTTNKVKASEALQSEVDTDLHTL
Description: as §1, §2

[4] = biological target: T3, CD200R1a on PathHunter Jurkat CD200R1a signaling cells (Eurofins DiscoverX, 93-1136C19) (human, UniProt Q8TD46 25-348); assay: cell-based or functional assay
T3 sequence: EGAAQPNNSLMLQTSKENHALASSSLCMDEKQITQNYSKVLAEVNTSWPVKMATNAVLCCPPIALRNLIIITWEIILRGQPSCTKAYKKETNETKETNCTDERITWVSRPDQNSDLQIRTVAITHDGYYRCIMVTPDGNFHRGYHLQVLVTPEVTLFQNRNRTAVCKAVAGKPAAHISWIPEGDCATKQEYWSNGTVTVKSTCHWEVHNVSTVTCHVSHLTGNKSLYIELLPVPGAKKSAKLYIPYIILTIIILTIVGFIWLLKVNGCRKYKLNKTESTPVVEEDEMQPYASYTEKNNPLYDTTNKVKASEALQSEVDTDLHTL

[5] = biological target: T4, human CD200R1a protein (soluble recombinant) (human, UniProt Q8TD46 29-265); assay: BLI in-tandem competition on His-captured human CD200R1a; row = 1st Ab (400 nM); competitor (2nd Ab) PR007973
T4 construct: Soluble protein used in BLI; also called human CD200R1 isoform a; not shown: His tag implied by capture on anti-Penta-HIS biosensors
T4 sequence: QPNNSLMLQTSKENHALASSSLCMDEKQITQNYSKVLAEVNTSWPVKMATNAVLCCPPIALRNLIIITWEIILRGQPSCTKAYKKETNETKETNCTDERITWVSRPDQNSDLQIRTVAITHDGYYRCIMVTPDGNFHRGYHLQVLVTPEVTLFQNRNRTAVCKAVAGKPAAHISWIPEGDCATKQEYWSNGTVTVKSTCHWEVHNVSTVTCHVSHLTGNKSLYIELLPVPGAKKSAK
Description: To determine if the anti-CD200R1 antibodies bind to human CD200R1a on different or approximate binding epitopes, epitope competition experiments for the anti-CD200R1 antibodies were performed by the ForteBlio Octet® RED96e platform. […] The in-tandem competition assay format was applied, and it contained two association steps. Firstly, the antigen-loaded biosensors bound to each antibody (i.e., First antibody, 1st Ab) at a saturating concentration of 400 nM for 300 seconds to reach equilibrium and then secondly bound to the competing antibodies (i.e., Second antibody, 2nd Ab) of 400 nM for 300 seconds. The second binding signals are recorded as the 100% signal of each antibody when the first antibodies are replaced by kinetic buffer. All the binding data were analyzed using ForteBlio Data Analysis 11.0 software. The inhibition rate was calculated by the following formula: […]

Binder | EC50 [1] | EC50 [2] | MFI (MAX) [2] | EC50 [3] | IC50 of the inhibition of CD200-induced PathHunter Jurkat CD200R1a luminescence (CHOK1/hCD200 cells as CD200 source); head without unit, x axis Log [Ab] (nM) [4] | Inhibition ratio (%) [5]
PR002906 (antibody, V domains shown, also called recombinant IgG1 antibody of huDX182) VH: QVQLQESGPGLVKPSETLSLTCTVSGYTITSGYDWSWIRQPPGKGLEWIGYINYGGSTNYKPSLGSRVTISVDTSKNQFSLKLSSVTAADTAVYYCARYNEYKSYIYDWYFDFWGQGTLVTVSS VL: DIQMTQSPSSLSASVGDRVTITCKASKNIRSYLAWYQQKPGKAPKLLIYSGSTLHSGVPSRFSGSGSGTDFTLTISSLQPEDFATYYCQQHHEYPLTFGQGTKVEIKR | 20.8 nM | 21.4 nM | 26800 | 14.8 nM |  | 
PR006480 (antibody, human IgG1, kappa, L234A L235A, also called PR6480) heavy: not shown light: DIQMTQSPPSLSASVGDRVTITCRASQSISSYLNWFQQKAGKAPKLLISATSNLQSGVPSRFSGSGSGTDFTLTISSLQPEDLATYYCQQSYSSPYTFGQGTKVEIKRTVAAPSVFIFPPSDEQLKSGTASVVCLLNNFYPREAKVQWKVDNALQSGNSQESVTEQDSKDSTYSLSSTLTLSKADYEKHKVYACEVTHQGLSSPVTKSFNRGEC | 2.98 nM | 19.5 nM | 34600 | 33 nM | 4.55 nM | 
PR007223 (antibody, human IgG1, kappa, PTM variant of PR006895 (human IgG1)) heavy: not shown light: DIQLTQSPPSLSASVGDRVTITCRASQSISSYLNWFQQKAGKAPKLLISATSNLQSGVPSRFSGSGSGTDFTLTISSLQPEDLATYYCQQTYSSPYTFGQGTKVEIKRTVAAPSVFIFPPSDEQLKSGTASVVCLLNNFYPREAKVQWKVDNALQSGNSQESVTEQDSKDSTYSLSSTLTLSKADYEKHKVYACEVTHQGLSSPVTKSFNRGEC |  | 8.11 nM | 54200 |  |  | 99.6%
PR007221 (antibody, human IgG1, kappa, PTM variant of PR006895 (human IgG1)) heavy: not shown light: DIQLTQSPPSLSASVGDRVTITCRASQSISSYLNWFQQKAGKAPKLLISATSNLQSGVPSRFSGSGSGTDFTLTISSLQPEDLATYYCQQTLSSPYTFGQGTKVEIKRTVAAPSVFIFPPSDEQLKSGTASVVCLLNNFYPREAKVQWKVDNALQSGNSQESVTEQDSKDSTYSLSSTLTLSKADYEKHKVYACEVTHQGLSSPVTKSFNRGEC |  | 7.37 nM | 53300 |  |  | 95.6%
PR005509 (antibody, human IgG1, kappa, L234A L235A, V domains shown) VH: QVQLVESGGGVVQPGRSLRLSCAASGFTFSSYGFHWVRQAPGKGLEWLGLIWSDGSNKYYADSVKGRFTISRDNSKNTLYLQMNSLRAEDTAVYYCARDRIVGAGFDYWGQGTLVTVSS VL: not shown |  |  |  |  | 2.47 nM | 
PR005474 (antibody, human IgG1, kappa, L234A L235A, V domains shown) VH: QVQLVESGGGVVQPGRSLRLSCAASAFTFSSYGMHWVRQAPGKGLEWVALIWNDGSNKFYADSVKGRFTISRDNSKNTLFLQMNSLRAEDTAVYYCARDRILGAGFDYWGQGTLVTVSS VL: not shown | 3.34 nM |  |  | 9.36 nM | 7.75 nM | 
PR007973 (antibody, human IgG1, kappa, V domains shown, PTM variant of PR006839 (human IgG1)) VH: QVQLVESGGGVVQPGRSLRLSCAASGFTFSSYGFHWVRQAPGKGLEWLGIIWSDASNKYYADSVKGRFTISRDNSKNTLYLQMNSLRAEDTAVYYCARDRIVGEGFDYWGQGTLVTVSS VL: not shown |  |  |  |  |  | 103%
